T1: canine CD20 on cells (HEK293, MDCK II, CLBL-1 or native B cells) (canine, UniProt Q3C2E2 1-297)
T1 chain: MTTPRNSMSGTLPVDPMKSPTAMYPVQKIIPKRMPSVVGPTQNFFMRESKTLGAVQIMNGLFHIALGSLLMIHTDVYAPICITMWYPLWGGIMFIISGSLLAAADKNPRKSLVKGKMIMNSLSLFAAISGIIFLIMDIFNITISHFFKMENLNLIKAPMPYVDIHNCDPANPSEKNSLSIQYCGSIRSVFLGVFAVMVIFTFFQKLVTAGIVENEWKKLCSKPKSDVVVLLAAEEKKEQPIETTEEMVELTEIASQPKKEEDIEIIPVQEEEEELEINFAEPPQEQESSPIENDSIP


Experiments:
[1] = target: T1, canine CD20 on cells (HEK293, MDCK II, …); assay: cell-based or functional assay
[2] = target: T1, canine CD20 on cells (HEK293, MDCK II, …); assay: cell-based or functional assay

| EC50 (nM), endogenous B cell depletion in PBMC (FIG. 16A) [1] [nM] | Binder | EC50 (nM), bispecific killing (FIG. 15) [2] [nM] |
| --- | --- | --- |
| 0.247 | PMX172VH/PMX262VH/PMX172VL (bispecific antibody, V domains shown) VH 1: EVQLVESGGDLVKPGGSLRLSCVASGFTFSSYHMSWVRQAPGKGLQWVAYSNSGGSRTSYADAVKGRFTISRDNAKNTLYLQMNSLRAEDTAVYYCASEGGGGRYGYKDYGMDYWGHGTSLFVSS VH 2: EVQLVESGGDLVKPGGSLRLSCVASGITFSRYYMNWVRQAPGKGLQWVAYINSGGSPTTYADAVKGRFTISRDNAKNTLYLQMNSLRAEDTAVYYCTSFDYWGQGTLVTVSS VL: SYVLTQLPSKNVTLKQPAHITCGGDNIGSKSVHWYQQKLGQAPVLIIYYDSSRPTGIPERFSGANSGNTATLTISGALAEDEADYYCQVWDSSAKAWVFGEGTQLTVL | 0.129 |
| 0.764 | PMX172VH/PMX268VH/PMX172VL (bispecific antibody, V domains shown) VH 1: EVQLVESGGDLVKPGGSLRLSCVASGFTFSSYHMSWVRQAPGKGLQWVAYSNSGGSRTSYADAVKGRFTISRDNAKNTLYLQMNSLRAEDTAVYYCASEGGGGRYGYKDYGMDYWGHGTSLFVSS VH 2: EVQLVESGGDLMKPGGSLRLSCVASGITFSGYHMSWVRQAPGKGLQWVAFINSGRKNTAYADAVKGRFTISRDNAKNTLYLQMNSLRAEDTAIYYCTTLEFWGQGTLVTVSS VL: SYVLTQLPSKNVTLKQPAHITCGGDNIGSKSVHWYQQKLGQAPVLIIYYDSSRPTGIPERFSGANSGNTATLTISGALAEDEADYYCQVWDSSAKAWVFGEGTQLTVL |  |
| 0.075 | PMX172VH/PMX236VH/PMX172VL (bispecific antibody, V domains shown) VH 1: EVQLVESGGDLVKPGGSLRLSCVASGFTFSSYHMSWVRQAPGKGLQWVAYSNSGGSRTSYADAVKGRFTISRDNAKNTLYLQMNSLRAEDTAVYYCASEGGGGRYGYKDYGMDYWGHGTSLFVSS VH 2: EVQLVESGGDLVKPGGSLRLSCVASGLTFSRYYMNWVRQAPGKGLQWVAYIDSGGSPTNYADAVKGRFTISRDNAKNTLYLQMNSLRAEDTAVYYCSSFDYWGQGTLVTVSS VL: SYVLTQLPSKNVTLKQPAHITCGGDNIGSKSVHWYQQKLGQAPVLIIYYDSSRPTGIPERFSGANSGNTATLTISGALAEDEADYYCQVWDSSAKAWVFGEGTQLTVL | 0.153 |
| 0.307 | PMX172VH/PMX233VH/PMX172VL (bispecific antibody, V domains shown) VH 1: EVQLVESGGDLVKPGGSLRLSCVASGFTFSSYHMSWVRQAPGKGLQWVAYSNSGGSRTSYADAVKGRFTISRDNAKNTLYLQMNSLRAEDTAVYYCASEGGGGRYGYKDYGMDYWGHGTSLFVSS VH 2: EMQLVESGGDLVKPGGSLRLSCVASGFTFSRYYMNWVRQAPGKGLQWVAYIDSGGSPTNYADAVKGRFTISRDNAKNTLYLQMNSLRAEDAAIYYCTTFDFWGQGTLVTVSS VL: SYVLTQLPSKNVTLKQPAHITCGGDNIGSKSVHWYQQKLGQAPVLIIYYDSSRPTGIPERFSGANSGNTATLTISGALAEDEADYYCQVWDSSAKAWVFGEGTQLTVL | 0.188 |
| 0.183 | PMX172VH/PMX230VH/PMX172VL (bispecific antibody, V domains shown) VH 1: EVQLVESGGDLVKPGGSLRLSCVASGFTFSSYHMSWVRQAPGKGLQWVAYSNSGGSRTSYADAVKGRFTISRDNAKNTLYLQMNSLRAEDTAVYYCASEGGGGRYGYKDYGMDYWGHGTSLFVSS VH 2: EVHLVESGGDLVKPGGSLRLSCVASGITFNRYYMNWVRQTPGKGLQWVAYIDSGGSPTTYADAVKGRFTISRDNAKNTLYLQMNSLRAEDTAVYYCTSFDYWGQGTLVTVSS VL: SYVLTQLPSKNVTLKQPAHITCGGDNIGSKSVHWYQQKLGQAPVLIIYYDSSRPTGIPERFSGANSGNTATLTISGALAEDEADYYCQVWDSSAKAWVFGEGTQLTVL | 0.121 |
